Literature values, collected in publication PMC8228819, “Comparison of a Short Linear Antimicrobial Peptide with Its Disulfide-Cyclized and Cyclotide-Grafted Variants against Clinically Relevant Pathogens” (Microorganisms, 2021).
Entries after “also recorded” stand apart in the source; their conditions may differ.

How the values were obtained:
[1] = cited from earlier work
Excerpt: We therefore followed two cyclization strategies: (i) a simple disulfide-cyclization by introduction of N- and C-terminal cysteines, and (ii) grafting onto an extremely stable scaffold with three disulfide bridges and backbone cyclization. The MCoTI-II cyclotide scaffold was used because of its inherent non-cytotoxic nature. […] The linear peptide was ...

red blood cells = settings: cited from earlier work
Excerpt: The 9mer AMP was grafted into loops 5 and 6 of MCoTI-II. These loops were previously found to be abl ...

[2] = cited from earlier work; remark: listed apart in the source
Excerpt: These loops were previously found to be abl ... || Fractions f4 to f6 of [L6-optP7]Mco were initially tested against P. aeruginosa, E. coli, and MRSA (Table 1) using a rich media, Mueller–Hinton broth (MH), with all fractions displaying about the same moderate activity (within errors of the method). […] Calcium (Ca^2+) and magnesium (Mg^2+) often have the strongest effect on the antimicrobial activity of AMPs; their theoretical concentration in MH brot ...

## Momordica trypsin inhibitor II (cyclo(SGSDGGVCPKILKKCRRDSDCPGACICRGNGYCG); also: three cystine-knot disulfides, pairing not given here; UniProt P82409 1-34, looked up) [MCoTI-II]
[1]
  Stability in human serum: high stability
Red blood cells
  Hemolytic activity towards red blood cells: does not show hemolytic activity
[2]
  Antimicrobial activity: does not exhibit any antimicrobial activity; also recorded: does not exhibit any antimicrobial effects
